# From PMC10154539 (Cell Reports, 2023)
# Substitutions are numbered along the chain they refer to.
# B1: XG005a (antibody, V domains shown)
# VH: QITLKESGPTLVKPTQTLTLTCTFSGFSLSTSGVGVGWIRQPPGKALEWLALIYWDNDKRYSPSLKSRLTITMDTSKNQVVLTMTNMDPVDTATYYCARLPSTDTIFDYWGQGALVTVSS
# VL: QSALTQPASVSGSPGQSITVSCTGTSSDVGDYNYVSWYQQHPGKAPKLMIYDVSKRPSGVSNRFSGSKSGKTASLTISGLQAEDEADYYCSSYTSTSVVFGGGTKLTVL
# B2: XG005 (antibody, V domains shown)
# VH: QVTLRESGPTLVKPKQTLTLTCTFSGFSLSTPGGGVGWIRQPPGKALEWLALIYWDDDKRYSPSLKSSLTITKDTSKNQVVLTMTNMDPVDTATYYCARLTAADTIFDCWGQGTLVTVSS
# VL: B1 VL with Q16L, V20I, G24A, D31A, K44Q, G70A, K71N, S95T
# B3: XG005c (antibody, V domains shown)
# VH: B1 VH with N57D, M73K, L82V, S102A, Y109S, A114T
# VL: B1 VL with V20I, D31A, K71Y, A82P, Y89F, S95T
# Experiments:
# [1] = biological target: T1, S-ECD protein of SARS-CoV-2 Omicron (B.1.1.529) (SARS-CoV-2 B.1.1.529 (Omicron), strain); assay: cell-based or functional assay
# [2] = biological target: T1, S-ECD protein of SARS-CoV-2 Omicron …; assay: ELISA
# [3] = biological target: SARS-CoV-2 Spike protein (ECD, His & FLAG tag), Wuhan-Hu-1 (wild-type) (SARS-CoV-2 Wuhan-Hu-1, UniProt P0DTC2); assay: ELISA
Binder,"IC50 of neutralization of Omicron pseudovirus, Huh-7 cells, luciferase [1] [µg/mL]",ELISA AUC [2],binding result [3]
B1,> 10,~26,–
B2,–,~30,binds
B3,2,~30,–
